One data set deals with HCC827 ER15 cells. The following applies: HCC827 ER15, 72 hours, L3-1Y 0.14 μg/ml, Erlotinib 10 nm.
In another data set the test system is EBC-1 tumor. Briefly: Tumor xenograft model, EBC-1. In kind it is in vivo, BALB/c nude mice. The following applies: EBC-1 xenograft, 5 mg/kg I.V. once/week, 28th day. Here is the method:
(§1) For use in examining in vivo effects of anti-c-Met antibody on tumor growth, male BALB/c nude mice, 5˜6 weeks old, were xenografted with a tumor (all experiments were carried out in Pharmalegacy, China). For at least one week before the transplantation, the mice were acclimated.
(§2) Then, the mice were anesthetized with 1-2% isofuran and xenografted subcutaneously in the right flank with 5×10^6 cells of EBC-1 or HS746T. Seven days after the grafting, the tumors measured 50 mm3 or greater on average. The mice were divided into the following three groups: 5D5 (5 mg/kg I.V. once/week) treated, L3-1Y (5 mg/kg I.V. once/week) treated, and vehicle (PBS 0.2 ml I.V. once/week) treated (control). Each group was composed of 15 mice.
(§3) Over a total of five weeks, volumes and weights of the tumors were measured […]. Tumor volume (V) was calculated according to the following formula: V (mm3)={Long Axis Length (mm)×(Small Axis Length (mm))2}/2.
(§4) L3-1Y (1) is an antibody based on hIgG1 with the Th7 hinge (usually referred to just as L3-1Y) while L3-1Y (2) contains the same epitope but has the hIgG2 backbone. […] Tumor suppression of each of the antibodies was expressed as percentages of volume reduction compared to the tumor volume on the 28th day of the vehicle-treated group (0%) in Table 3 for EBC-1 and Table 4 for HS746T.

A further data set relates to HS746T tumor. The data set is described as follows: Tumor xenograft model, HS746T. The following applies: 5 mg/kg I.V. once/week, 28th day. Format: in vivo, BALB/c nude mice. Here is the method: as §1, §2, §3, §4

Procedure for HCC827 ER15 cells: HCC827 ER15, which expresses c-Met at a high level but Cbl at a relatively low level was used in assay for the apoptotic effect of a combination dosage of an anti-c-Met antibody and an EGFR antagonist.
Then, cell viability was measured in the same manner as in Example 1.4.

With `C#Cc1cccc(Nc2ncnc3cc(OCCOC)c(OCCOC)cc23)c1` [Erlotinib], in the data set with HCC827 ER15 cells, the “cell viability as percentage of untreated control” value is “almost no apoptotic effects”.

B1: L3-1Y (2): contains the same epitope as L3-1Y but has the hIgG2 backbone (antibody)
heavy: EVQLVESGGGLVQPGGSLRLSCAASGFTFTDYYMSWVRQAPGKGLEWLGFIRNKANGYTTEYSASVKGRFTISRDNSKNTLYLQMNSLRAEDTAVYYCARDNWFAYWGQGTLVTVSSASTKGPSVFPLAPCSRSTSESTAALGCLVKDYFPEPVTVSWNSGALTSGVHTFPAVLQSSGLYSLSSVVTVPSSNFGTQTYTCNVDHKPSNTKVDKTVERKCCVECPPCPAPPVAGPSVFLFPPKPKDTLMISRTPEVTCVVVDVSHEDPEVQFNWYVDGVEVHNAKTKPREEQFNSTFRVVSVLTVVHQDWLNGKEYKCKVSNKGLPAPIEKTISKTKGQPREPQVYTLPPSREEMTKNQVSLTCLVKGFYPSDIAVEWESNGQPENNYKTTPPMLDSDGSFFLYSKLTVDKSRWQQGNVFSCSVMHEALHNHYTQKSLSLSPGK
light: DIQMTQSPSSLSASVGDRVTITCKSSQSLLASGNQNNYLAWYQQKPGKAPKMLIIWASTRVSGVPSRFSGSGSGTDFTLTISSLQPEDFATYYCQQSYSRPYTFGQGTKVEIKRTVAAPSVFIFPPSDEQLKSGTASVVCLLNNFYPREAKVQWKVDNALQSGNSQESVTEQDSKDSTYSLSSTLTLSKADYEKHKVYACEVTHQGLSSPVTKSFNRGEC
On to B1, for which the results for the “At d28:TV; tumor suppression as percentage of volume reduction compared to vehicle-treated group” value in the data set with EBC-1 tumor and in the data set with HS746T tumor were 87.0% and “Regression”, respectively.

Source of the values: patent US9213031B2, “Use of Cbl as biomarker for identifying subject suitable for treatment with anti-c-Met antibody” (SAMSUNG ELECTRONICS CO., LTD., priority 2012, dated 2015).
